Data: US20120129720, “APTAMER THAT RECOGNIZES PEPTIDE” (KANAGAWA PREFECTURAL HOSPITAL ORGANIZATION, published 2012)

T1: His-MIF (His-tag/T7 gene 10 leader/Xpress-MIF fusion) (UniProt P14174 P14174:1-115)
T1 chain: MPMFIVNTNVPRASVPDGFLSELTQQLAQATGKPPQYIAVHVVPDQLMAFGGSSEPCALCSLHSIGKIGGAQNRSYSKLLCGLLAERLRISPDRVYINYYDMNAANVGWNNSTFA


How the values were obtained:
[1] = target: T1, His-MIF (His-tag/T7 gene 10 …); test: SPR; 600 nM His-MIF; conditions: MIF 115 aa; ATGen; label: biotin-T20 hybridised to tail; stem-loop
Method: (§1) A molecular interaction between each of the RNA aptamers and each of fusion proteins, i.e., a binding ability of each of the RNA aptamers to each of the fusion proteins was analyzed using surface plasmon resonance. The analysis of the binding ability was performed using BiacoreX (GE Healthcare UK Ltd.) according to the instruction thereof. Specifically, first, polyadenine having 20 bases was added to the 3′-end of the RNA aptamer. Thus, polyadenine-added RNA aptamer was prepared. This was then heated at 95° C. for 5 minutes and rapidly cooled on ice. Biotinylated polythymine having 20 bases obtained by biotinylating the 5′-end of polythymine had been bound to a streptavidin chip (Sensor chip SA, GE Healthcare UK Ltd.). The polyadenine-added RNA aptamer was introduced into a flow cell on the streptavidin chip using a running buffer. At this stage, the polyadenine-added RNA aptamer was immobilized on the chip via the biotinylated polythymine by complementary binding between poly A of the polyadenine-added RNA aptamer and the biotinylated polythymine. The polyadenine-added RNA aptamer was caused to bind to the biotinylated polythymine until a resonance unit (RU) (resonance unit; 1 RU=1 pg/mm²) reaches 700 RU. Subsequently, HBS (Hepes Buffered Saline) containing the fusion protein with a predetermined concentration was introduced into the chip using a running buffer, and a signal (RU) was measured. The composition of the running buffer includes 10 mmol/L HEPES (4-(2-hydroxyethyl)-1-piperazine ethanesulfonic acid), 150 mmol/L sodium chloride, 0.1 mmol/L magnesium acetate, and 0.01% Tween (registered trademark) 20 (pH 7.2). As a control, an introduction of the fusion protein and a measurement of a signal were performed in the same manner as described above using a chip to which biotinylated polythymine had been bound, on which no polyadenine-added RNA aptamer had been immobilized.
A binding ability of each of the RNA pools in the respective rounds to His-MIF was analyzed by surface plasmon resonance in the same manner as in “1. (4) Molecular interaction analysis” of Example 1. […] N40 (control RNA) also was analyzed in the same manner as mentioned above.

[2] = target: T1, His-MIF (His-tag/T7 gene 10 …); test: SPR; 10 mM HEPES, 150 mM NaCl, 0.1 mM Mg acetate, 0.01% Tween 20, pH 7.2; RNA immobilised; conditions: MIF 115 aa; ATGen; label: biotin-T20 hybridised to tail; stem-loop
Method: as §1, with “The polyadenine-added RNA aptamer was caused to bind to the biotinylated polythymine until a resonance unit (RU) (resonance unit; 1 RU=1 pg/mm²) reaches 700 RU.” left out, “The composition of the running buffer includes 10 mmol/L HEPES (4-(2-hydroxyethyl)-1-piperazine ethanesulfonic acid), 150 mmol/L sodium chloride, 0.1 mmol/L magnesium acetate, and 0.01% Tween (registered trademark) 20 (pH 7.2). As a control, an introduction of the fusion protein and a measurement of a signal were performed in the same manner as described above using a chip to which biotinylated polythymine had been bound, on which no polyadenine-added RNA aptamer had been immobilized.” left out

[3] = target: T1, His-MIF (His-tag/T7 gene 10 …); test: SPR; same as shot47; conditions: MIF 115 aa, ATGen, stem-loop
Method: as §1, with “The polyadenine-added RNA aptamer was caused to bind to the biotinylated polythymine until a resonance unit (RU) (resonance unit; 1 RU=1 pg/mm²) reaches 700 RU.” left out, “The composition of the running buffer includes 10 mmol/L HEPES (4-(2-hydroxyethyl)-1-piperazine ethanesulfonic acid), 150 mmol/L sodium chloride, 0.1 mmol/L magnesium acetate, and 0.01% Tween (registered trademark) 20 (pH 7.2). As a control, an introduction of the fusion protein and a measurement of a signal were performed in the same manner as described above using a chip to which biotinylated polythymine had been bound, on which no polyadenine-added RNA aptamer had been immobilized.” left out
A binding ability of each of downsized RNA aptamers to His-MIF as a fusion protein was analyzed by the molecular interaction analysis. […]

[4] = target: T1, His-MIF (His-tag/T7 gene 10 …); test: SPR; 600 nM His-MIF; excellent binding; conditions: MIF 115 aa; ATGen
Method: as §1, with “The polyadenine-added RNA aptamer was caused to bind to the biotinylated polythymine until a resonance unit (RU) (resonance unit; 1 RU=1 pg/mm²) reaches 700 RU.” left out, “The composition of the running buffer includes 10 mmol/L HEPES (4-(2-hydroxyethyl)-1-piperazine ethanesulfonic acid), 150 mmol/L sodium chloride, 0.1 mmol/L magnesium acetate, and 0.01% Tween (registered trademark) 20 (pH 7.2). As a control, an introduction of the fusion protein and a measurement of a signal were performed in the same manner as described above using a chip to which biotinylated polythymine had been bound, on which no polyadenine-added RNA aptamer had been immobilized.” left out
A binding ability of each of these RNA aptamers to His-MIF was analyzed by surface plasmon resonance in the same manner as in “1. […]

[5] = target: T1, His-MIF (His-tag/T7 gene 10 …); test: SPR; 600 nM His-MIF; conditions: MIF 115 aa; ATGen
Method: as §1
A binding ability of each of these RNA aptamers to His-MIF was analyzed by surface plasmon resonance in the same manner as in “1. (4) Molecular interaction analysis” of Example 1.

Binder	binding result [5]	also measured
shot47 (ssRNA, 3' A20 tail for capture) RNA: GGGACGCUCACGUACGCUCACGUCCGAUCGAUACUGGUAUAUUGGCGCCUUCGUGGAAUGUCAGUGCCUGGACGUGCAGU	–	binding signal [1]: 1.88 His-MIF/RNA bonds; Kd [2]: 3.78 pM
#47s (ssRNA, 3' A20 tail for capture) RNA: GGGUACGCUCAGGUAUAUUGGCGCCUUCGUGGAAUGUCAGUGCCUGGACGUGCAGU	–	binding result [3]: binds
GGGUAUAUUGGCGCCUUCGUGGAAUGUCAGUGCCUGG (ssRNA, 3' A20 tail for capture) [shot47sss]	–	binding result ([3]; label: biotin-T20 hybridised to tail (ELISA)): binds
His_1 (ssRNA, 3' A20 tail for capture) RNA: GGGACGCUCACGUACGCUCAGGUGAACUGGUCCGCAUUUAGCUUUCUUAUUUGCGGGUAUUCAGUGCCUGGACGUGCAGU	–	binding result [4]: binds
His_2 (ssRNA, 3' A20 tail for capture) RNA: GGGACGCUCACGUACGCUCAGGUGAAUUGGCCGCCGUUCUUUCCGUGGAAUGACGCGAUGUCAGUGCCUGGACGUGCAGU	binds	–
His_3 (ssRNA, 3' A20 tail for capture) RNA: GGGACGCUCACGUACGCUCAGGUGUACUGGCACUACUGAAAUUUCAUUUGAGUAGGUCUGUCAGUGCCUGGACGUGCAGU	binds	–
His_4 (ssRNA, 3' A20 tail for capture) RNA: GGGACGCUCACGUACGCUCAUAAGGGUGUACUGGCGAUUGUUGGGACGCACUUCAAUUUGUCAGUGCCUGGACGUGCAGU	binds	–
His_5 (ssRNA, 3' A20 tail for capture) RNA: GGGACGCUCACGUACGCUCAGAACCCGUAUUGGUCACAGGUGGAUUGGUCUAUAUUGUUAUCAGUGCCUGGACGUGCAGU	binds	–
His_6 (ssRNA, 3' A20 tail for capture) RNA: GGGACGCUCACGUACGCUCAGGUGUAUUGGAUUUGCUCCGAGGGUGUAGACCCCACAGAUUCAGUGCCUGGACGUGCAGU	binds	–
His_10 (ssRNA, 3' A20 tail for capture) RNA: GGGACGCUCACGUACGCUCAUUAGCUUAGCUUCAUGCCCGGGUGUACUGGAGAUCUCUUAUCAGUGCCUGGACGUGCAGU	binds	–
